# Assay results: the supplement of paper PMC11908140
# B1: library; numbered along this chain (parent)
# chain: MRKPRAAVGSGHRKQAASQEGRQKHAKNNSQAKPSACDGLARQPEEVVLQASVSSYHLFRDVAEVTAFRGSLLSWYDQEKRDLPWRRRAEDEMDLDRRAYAVWVSEVMLQQTQVATVINYYTGWMQKWPTLQDLASASLEEVNQLWAGLGYYSRGRRLQEGARKVVEELGGHMPRTAETLQQLLPGVGRYTAGAIASIAFGQATGVVDGNVARVLCRVRAIGADPSSTLVSQQLWGLAQQLVDPARPGDFNQAAMELGATVCTPQRPLCSQCPVESLCRARQRVEQEQLLASGSLSGSPDVEECAPNTGQCHLCLPPSEPWDQTLGVVNFPRKASRKPPREESSATCVLEQPGALGAQILLVQRPNSGLLAGLWEFPSVTWEPSEQLQRKALLQELQRWAGPLPATHLRHLGEVVHTFSHIKLTYQVYGLALEGQTPVTTVPPGARWLTQEEFHTAAVSTAMKKVFRVYQGQQPGTCMGSKRSQVSSPCSRKKPRMGQQVLDNFFRSHISTDAHSLNSAAQ
# Variants of: B1
# Assay: 8OG:A repair function score (normalized; synonymous = 0, nonsense = -1) (normalized log-likelihood score); higher = more repair activity (WT-like)
# Settings: with 8OG:A DNA repair reporter (GFP) in HEK-293 MUTYH KO cells
# Procedure, shortened: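 After 72 h, viable mCherry+ cells were split into GFP+ (repair) and GFP− bins in three replicates per tile. These cells were MUTYH knockout HEK-293 cells holding lentiviral MUTYH cDNA NNN codon-scan libraries, kept in 10 pg/ml doxycycline and co-transfected with mCherry plus an 8OG:A GFP repair reporter. Sequencing of tile amplicons gave per-tile Rosace fitness scores, normalized into a repair function score anchored on synonymous and nonsense distributions. Synonymous medians were fixed at 0, nonsense at -1, and variants under 300 counts per million at the start were removed.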
# 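Further: cells sorted at 72 h after reporter transfection.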
row,Variant,8OG:A repair function score
1,V327P,-0.051
2,Q282W,-0.0465
3,V214M,-0.207
4,L387V,-0.0288
5,E79T,0.00587
6,G70E,-0.0876
7,S384L,-0.000173
8,S384I,0.0514
9,S384N,-0.0929
10,R281I,-0.176
11,P185S,-0.221
12,H410V,-0.2
13,H410F,0.096
14,D502W,-0.0396
15,D502R,0.0187
16,D502V,-0.0389
17,Q288L,-0.0159
18,Q499W,-0.0171
19,V441G,-0.221
20,V441N,-0.259
21,V441S,-0.0467
22,P225M,-0.186
23,A36S,-0.0113
24,L501K,-0.0877

row,Variant,8OG:A repair function score
1,Q473F,0.00513
2,L349C,-0.018
3,Q271W,-0.0164
4,L408D,-0.946
5,H407V,0.0608
6,H407T,-0.107
7,Y121Q,-0.765
8,P273I,-0.662
9,E167S,-0.0659
10,Q426S,-0.0807
11,P352E,-0.0129
12,P352L,-0.0502
13,L234K,-0.869
14,L234Y,-0.976
15,P34S,0.0874
16,P338S,-0.0346
17,E141F,-0.392
18,V65L,-0.0109
19,T122P,0.0277
20,P174Q,-0.827
21,A203N,-0.000873
22,A203R,0.00374
23,D249H,-0.28
24,Q232D,-0.0919

row,Variant,8OG:A repair function score
1,D512W,-0.023
2,D91R,0.00216
3,V414W,-0.504
4,E302S,-0.307
5,E302H,-0.259
6,T260M,-0.0209
7,Q358L,0.00809
8,N119T,-0.0798
9,C269T,-1.06
10,C269K,-1.17
11,Q110R,-0.82
12,A220I,-0.848
13,Q394R,-0.0703
14,Q394H,0.21
15,S459T,-0.392
16,S459L,-0.866
17,G309C,-0.165
18,G309V,-0.0173
19,P264T,-0.066
20,G434M,0.0898
21,G434E,0.0175
22,Y428L,-0.828
23,R175L,-0.252
24,Q286L,-0.0175

row,Variant,8OG:A repair function score
1,Q286D,-0.0961
2,G123T,0.0116
3,R336E,-0.151
4,D82C,-0.0489
5,R189H,-0.228
6,L183R,-0.105
7,E342S,-0.0341
8,R491P,-0.0953
9,R491C,-0.013
10,G444L,-0.255
11,P247A,-0.379
12,V468A,-0.0846
13,P494F,-0.0209
14,P494K,-0.0663
15,S227H,-0.197
16,E385M,0.0941
17,V53D,0.00694
18,Q239Y,-0.309
19,H312T,-0.112
20,H312Y,-0.0454
21,V211Q,-0.837
22,T511E,-0.0321
23,A253S,-0.559
24,Q472E,-0.00354

row,Variant,8OG:A repair function score
1,E382M,0.019
2,N143R,-0.181
3,D96S,-0.15
4,E106N,-1.72
5,P488S,0.00249
6,V274G,-0.676
7,V274A,-0.219
8,S226G,-0.00798
9,V104N,-1.04
10,F200W,-0.182
11,G497H,-0.0394
12,R332T,-0.246
13,A461D,-0.732
14,L158D,-1.18
15,H508D,-0.000798
16,D208S,-0.987
17,V230K,-0.826
18,S136M,0.116
19,Q386P,-0.219
20,G171T,-0.321
21,G171L,-0.605
22,Q484Y,0.00945
23,T436Y,0.0674
24,S298F,-0.0178

row,Variant,8OG:A repair function score
1,A51D,0.029
2,A51M,-0.607
3,Q111A,-0.258
4,Q111T,-0.764
5,A199P,-1.07
6,Q126E,0.0677
7,A513Q,0.0184
8,V218H,-0.41
9,V218D,-0.983
10,V218K,-1
11,V218S,-0.374
12,R42K,0.0776
13,W381D,-0.141
14,G248S,-0.709
15,T406D,0.483
16,F453W,-0.274
17,F250V,-0.797
18,V261H,-0.25
19,S54W,-0.423
20,K3I,-0.161
21,G186P,-0.924
22,G186K,-0.9
23,G155T,-0.218
24,G155R,-0.543

row,Variant,8OG:A repair function score
1,E433F,-0.199
2,L277S,-0.022
3,L289W,-0.0271
4,R389S,-0.117
5,R217C,-1.03
6,F330S,-0.765
7,E452V,-0.351
8,Q78V,0.00652
9,V465N,-0.54
10,Q252N,-0.588
11,P299W,-0.0506
12,S487A,0.0181
13,L290K,0.0241
14,L361N,-0.575
15,G205A,-0.145
16,A99K,-1.18
17,Y469H,-0.0773
18,I421N,-0.83
19,V165L,-0.0671
20,G161I,-0.841
21,G161P,-0.919
22,G161F,-1.03
23,T455P,-0.714
24,T455W,-0.419

row,Variant,8OG:A repair function score
1,A445T,-0.288
2,D224R,-0.978
3,Q181T,-0.0945
4,Q181C,-0.121
5,Q181Y,0.00604
6,Q181D,-0.331
7,M108D,-0.793
8,M108W,-1.11
9,A101H,-0.0529
10,M173G,-0.965
11,P437F,-0.282
12,T417V,0.0389
13,T417K,0.36
14,V427D,-1.2
15,V427L,-0.345
16,R213D,-1.01
17,V458D,-0.952
18,S276L,-0.0125
19,C314R,-0.482
20,C314T,-0.575
21,G193Y,-0.241
22,T440A,-0.131
23,T440W,-0.105
24,W75L,-2.04

row,Variant,8OG:A repair function score
1,W75T,-3.63
2,E375Q,0.0245
3,D77C,-0.0754
4,Q470P,-0.426
5,C272F,-1.42
6,L373V,-0.504
7,R163M,-0.0916
8,W146E,-1.03
9,W146A,-0.448
10,T346S,-0.168
11,G39I,-0.0353
12,A259K,-0.197
13,A259W,-0.859
14,L215C,-0.768
15,L215Q,-0.871
16,L215N,-0.967
17,A137Q,-0.0812
18,A431M,-0.23
19,A431N,0.00246
20,L83P,-0.673
21,G412D,-0.162
22,L392N,-1.52
23,G475M,-0.126
24,P306G,-0.0173

row,Variant,8OG:A repair function score
1,F59I,-0.137
2,S490R,0.00301
3,C262N,-1.19
4,H420F,-0.576
5,D61N,-0.0108
6,D61Q,-0.0778
7,Q182K,0.129
8,A400F,0.262
9,C304I,-0.257
10,G429M,-0.288
11,G356D,-0.142
12,D300C,-0.0631
13,Q388A,0.235
14,Q388Y,-0.235
15,L145A,0.0661
16,L145E,-0.0292
17,Q144I,0.051
18,T263E,-0.267
19,A41V,-0.0754
20,A41E,-0.0689
21,A456H,-0.479
22,A456C,-0.168
23,R409H,-0.288
24,R409A,-0.0367

row,Variant,8OG:A repair function score
1,L315K,-0.116
2,A345Q,-0.264
3,M478F,0.0278
4,V107P,-1.01
5,K422S,-0.227
6,K422H,-0.22
7,Q240P,-1
8,V62R,-0.00306
9,V500L,0.00153
10,D94Q,-0.215
11,V415A,0.0175
12,A192V,-0.943
13,Q363V,-0.293
14,T176G,-0.216
15,M462L,-0.449
16,T476R,-0.0215
17,T476K,0.024
18,L241A,-0.581
19,V438S,-0.176
